Residue numbers refer to the chain shown, from its start. Names and notes keep the numbering of the source. Values joined by “and” are separate entries in the source; they are usually repeats but may differ in a detail not shown here. Identical values can stand only once.
Key:
His-tagged CEACAM1 [1] = biological target: T1, His-tagged CEACAM1 (human, UniProt P13688 35-428); experiment: SPR multi-cycle, purified IgG captured
T1 construct: 45 kDa SPR analyte; also called CEACAM1-HIS; CEACAM1 analyte
T1 sequence: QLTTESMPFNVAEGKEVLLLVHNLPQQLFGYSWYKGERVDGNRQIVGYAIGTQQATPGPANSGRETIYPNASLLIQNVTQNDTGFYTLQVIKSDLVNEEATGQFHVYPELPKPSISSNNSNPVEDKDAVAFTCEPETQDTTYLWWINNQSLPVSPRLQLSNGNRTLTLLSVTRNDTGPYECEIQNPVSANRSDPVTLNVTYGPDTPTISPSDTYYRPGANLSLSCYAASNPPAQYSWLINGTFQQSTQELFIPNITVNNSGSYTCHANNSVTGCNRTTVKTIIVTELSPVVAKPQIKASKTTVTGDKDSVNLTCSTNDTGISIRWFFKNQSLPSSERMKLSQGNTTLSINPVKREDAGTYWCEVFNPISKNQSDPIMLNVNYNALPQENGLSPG
Description: Variants CP08H03/Vκ8 S29A and CP08H03/CP08F05 were further analyzed using multi-cycle kinetics analysis, using a Biacore T200 instrument running Biacore T200 Evaluation Software V3.0.1. The purified antibodies were diluted to a concentration of 1 μg/ml in HBS-P+. At the start of each cycle, each antibody was captured on the Protein A surface to give an RL of ˜100 RU. Following capture, the surface was allowed to stabilize. Kinetic data was obtained using a flow rate of 80 μl/min to minimize any potential mass transfer effects. Multiple repeats of the blank (no CEACAM1) and a repeat of a single concentration of the analyte were programmed into the kinetic run in order to check the stability of both the surface and analyte over the kinetic cycles. For kinetic analysis, a two-fold dilution range was selected from 100 to 1.56 nM CEACAM1. The association phase of CEACAM1 was monitored for 150 seconds and the dissociation phase was measured for 150 seconds. Regeneration of the Protein A surface was conducted using two injections of 10 mM glycine-HCL pH 1.5 at the end of each cycle.
The signal from the reference channel Fc1 was subtracted from that of Fc2, Fc3 and Fc4 to correct for differences in non-specific binding to a reference surface, and a global Rmax parameter was used in the 1-to-1 binding model. The relative Kp compared to Parent (VH1/Vκ8 S29A) was calculated by dividing the Kp of the affinity matured composite human antibody variants by that of the Parent on the same chip. The kinetic parameters measured for the interaction of CEACAM1 with affinity matured CEACAM1 antibody variants CP08H03/Vκ8 S29A and CP08H03/CP08F05 are shown in Table 23.

His-tagged CEACAM1 [2] = biological target: T1, His-tagged CEACAM1; experiment: SPR single-cycle, supernatant IgG captured
Description: In order to assess the binding of the humanized, affinity matured reformatted lead IgGs, single-cycle kinetics analysis was performed on crude supernatants using a Biacore T200 running Biacore T200 Control Software V2.0.1 and Biacore T200 Evaluation Software V3.0. Antibodies were diluted in HBS-P+ to a final concentration of 0.5 μg/ml. At the start of each cycle, antibodies were loaded onto Fc2, Fc3 and Fc4 of the Protein A chip. IgGs were captured at a flow rate of 10 μl/min to give an immobilisation level (RL) of ˜100 RU (a level calculated to obtain a Rₘₐₓ of ˜50-150 RU once the analyte is bound). The surface was then allowed to stabilize. Single-cycle kinetics data was obtained with CEACAM1 as the analyte at a flow rate of 80 μl/min to minimize any potential mass transfer effects. Multiple repeats with the parent (VH1/Vκ8 S29A) antibody were performed to check the stability of the surface and analyte over the kinetic cycles. The signal from the reference channel Fc1 (no antibody) was subtracted from that of Fc2, Fc3 and Fc4 to correct for differences in non-specific binding to the reference surface. A three point, two-fold dilution range from 70 nM to 280 nM CEACAM1 without regeneration between each concentration was used. The signal from each antibody blank run (no CEACAM1) was subtracted to correct for differences in surface stability. The association phase for the three injections of increasing concentrations of CEACAM1 was monitored for 80 seconds each time and a single dissociation phase was measured for 150 seconds following the last injection of CEACAM1. Regeneration of the Protein A surface was conducted using two injections of 10 mM glycine-HCL pH 1.5 followed by a stabilization period of 250 seconds.

B1: chimeric antibody VH0/Vκ0 (antibody, IgG4, V domains shown)
VH: EVQLVESGGDLVKPGGSLKLACAASGFIFSSHGMSWVRQTPDKRLEWVATISSGGTYTYYPDSVKGRFTISRDNDKNTLYLQMNSLKSEDTAMYYCARHDFDYDAAWFAYWGQGTLVTVSS
VL: QIVLTQSPALMSASPGVKVTMTCSANSSVSYMYWYRQKPRSSPKPWIYLTSNLASGVPARFSGSGSGTSYSLTISSMEAEDAATYYCQQWSSNPPTFGSGTKLEIK
notes: IgG4 (S241P), kappa; also called VH0/Vκ0 (control); Chimeric VH0/Vκ0
Kd (His-tagged CEACAM1 [1]): 95 nM and 100 nM | koff (His-tagged CEACAM1 [1]): 0.045 s⁻¹ and 0.035 s⁻¹ | kon (His-tagged CEACAM1 [1]): 470000 M⁻¹ s⁻¹ and 350000 M⁻¹ s⁻¹

B2: VH1/Vκ8 S29A (antibody, IgG4, V domains shown)
VH: B1 VH with V5L, D10G, K13Q, K19R, A21S, T40A, D42G, R44G, D75S, S88A
VL: EIVLTQSPATLSLSPGERATLSCRANSAVSYMYWYQQKPGQAPRPWIYLTSNRATGVPARFSGSGSGTDYTLTISSLEPEDFAVYYCQQWSSNPPTFGQGTKLEIK
notes: IgG4 (S241P), kappa; also called Parent; Parent (VH1/Vκ8 S29A)
Kd (His-tagged CEACAM1 [1]): 420 nM and 490 nM | koff (His-tagged CEACAM1 [1]): 0.045 s⁻¹ and 0.06 s⁻¹ | kon (His-tagged CEACAM1 [1]): 110000 M⁻¹ s⁻¹ and 120000 M⁻¹ s⁻¹ | relative KD to parent (His-tagged CEACAM1 [1]): 1 | Kd (His-tagged CEACAM1 [2]): 590 nM | koff (His-tagged CEACAM1 [2]): 0.057 s⁻¹ | kon (His-tagged CEACAM1 [2]): 95000 M⁻¹ s⁻¹ | relative KD to parent (His-tagged CEACAM1 [2]): 1

B3: CP08H03/Vκ8 S29A (antibody, IgG4, V domains shown)
VH: EVQLLESGGGLVQPGGSLRLSCAASGFIFSSHGMSWVRQAPGKGLEWVATISSGGTYTYYPDSVKGRFTISRDNSKNTLYLQMNSLKAEDTAMYYCARHDFDYFPYWFAHWGQGTLVTVSS
VL: B2 VL
notes: IgG4 (S241P), kappa; also called CP08_H03/Parent VL; CP08_H03/Parental
Kd (His-tagged CEACAM1 [1]): 99 nM | koff (His-tagged CEACAM1 [1]): 0.009 s⁻¹ | kon (His-tagged CEACAM1 [1]): 91000 M⁻¹ s⁻¹ | relative KD to parent (His-tagged CEACAM1 [1]): 4.3 | Kd (His-tagged CEACAM1 [2]): 45 nM | koff (His-tagged CEACAM1 [2]): 0.0076 s⁻¹ | kon (His-tagged CEACAM1 [2]): 180000 M⁻¹ s⁻¹ | relative KD to parent (His-tagged CEACAM1 [2]): 13.7

B4: CP08H03/CP08F05 (antibody, V domains shown)
VH: B3 VH
VL: B2 VL with S91T
notes: IgG4 (S241P), kappa
Kd (His-tagged CEACAM1 [1]): 58 nM | koff (His-tagged CEACAM1 [1]): 0.0078 s⁻¹ | kon (His-tagged CEACAM1 [1]): 130000 M⁻¹ s⁻¹ | relative KD to parent (His-tagged CEACAM1 [1]): 8.4
